± gives the uncertainty stated by the source.
Assay: protein stability index of a GFP-peptide fusion (yeast GPS) (PSI 1-4); higher = more stable; sorted into four equal gates, so the index is relative within each strain
Summary of the method: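 Tiled 17-residue peptides from yeast proteins were fused downstream of GFP on a plasmid that also expresses Cherry, and the pooled library was carried in yeast. Mid-log cultures grown in leucine-free medium were sorted into four equal gates by GFP/Cherry fluorescence ratio. Plasmids from each gate were PCR-amplified and Illumina-sequenced, and reads were assigned to strains by barcodes. Each peptide's protein stability index is the sum, over gates, of the gate's read frequency multiplied by its gate number.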

Sequence | protein stability index (doa10∆) | protein stability index (pdr5∆) | protein stability index (san1∆) | protein stability index (ubr1∆)
ALNKISKYYPGVIIKVE [SNU114] | 2.04 ± 0.057 | 1.53 ± 0.07 | 1.9 ± 0.085 | 2.33 ± 0.063
IASLERELILAKKQNYK [YCG1] | 2.6 ± 0.07 | 3.07 ± 0.06 | 2.14 ± 0.084 | 2.42 ± 0.041
NKAQAKMDKRAKNSDSA [RPL8A] | 3.43 ± 0.094 | 3.38 ± 0.11 | 3.27 ± 0.047 | 3.54 ± 0.067
WADNYERKEQEEKEKEQ [BRN1] | 3.47 ± 0.21 |  | 3.49 ± 0.11 | 3.46 ± 0.14
RYFWLDHNGVPFPQYPA [ITC1] | 2.22 ± 0.096 | 2.81 ± 0.086 | 3.08 ± 0.1 | 2.47 ± 0.06
ACLGNDGILRLYDALEP [YGL100W/SEH1] | 2.21 ± 0.058 | 2.19 ± 0.048 | 1.86 ± 0.065 | 1.96 ± 0.034
HKVQTKLTRELEKKFQD [RPS7A] | 2.43 ± 0.066 | 2.01 ± 0.06 | 2.37 ± 0.091 | 2.54 ± 0.048
GRLRNKSHKQTIVTGGG [RPP1] | 2.57 ± 0.093 | 2.89 ± 0.081 | 2.56 ± 0.073 | 2.92 ± 0.074
PVRALIVQAKEPNLAAQ [ECM29] | 2.14 ± 0.11 | 2.6 ± 0.08 | 2.51 ± 0.092 | 2.64 ± 0.059
LASFEKTTDHLFDAAFY [RPO31] | 2.9 ± 0.058 | 2.79 ± 0.046 | 2.96 ± 0.05 | 3 ± 0.043
HLEEYGYLIQVLLTFLQ [YCS4] | 1.59 ± 0.078 | 1.35 ± 0.09 | 1.21 ± 0.17 | 1.13 ± 0.097
PIGRDGKLAKPRQLHNT [RPB2] | 2.89 ± 0.077 | 2.88 ± 0.068 | 2.67 ± 0.059 | 2.84 ± 0.081
HATVVPPEEFSNTIDEL [SRB7] | 3.19 ± 0.071 | 3.25 ± 0.09 | 2.89 ± 0.1 | 3.02 ± 0.089
EDGLGPLMAKSVKKAGA [ARP7] |  | 3.48 ± 0.27 |  | 3.27 ± 0.14
HDVGELFWKVKEEEGSF [PRE2] | 2.71 ± 0.081 | 2.97 ± 0.08 | 2.92 ± 0.064 | 2.86 ± 0.07
TPEMNVTNNVEEGEFII [TAF14] |  | 2.43 ± 0.26 |  | 3.62 ± 0.22
LDEIFSGCDSTKPSLRK [ECM29] | 2.57 ± 0.078 | 2.55 ± 0.06 | 2.65 ± 0.065 | 2.65 ± 0.038
VWYGLSDGEDGHIPWHI [SSN2] | 3.05 ± 0.08 | 3.25 ± 0.091 | 3.07 ± 0.053 | 3.1 ± 0.062
INKNSKIALREYINNCK [POP4] | 2.04 ± 0.23 | 2.17 ± 0.098 | 2.42 ± 0.11 | 1.73 ± 0.14
VTLNKYCSGNIYDFHKM [YJL039C/NUP192] | 2.7 ± 0.044 | 2.81 ± 0.051 | 2.91 ± 0.04 | 2.78 ± 0.041

Sequence | protein stability index (doa10∆) | protein stability index (pdr5∆) | protein stability index (san1∆) | protein stability index (ubr1∆)
VPNSSDQAELPNNASSH [SNF2] | 2.26 ± 0.13 | 2.85 ± 0.21 |  | 2.74 ± 0.16
KKMMNTSDSESTLYKYL [SWI3] | 2.94 ± 0.079 | 2.87 ± 0.075 | 2.79 ± 0.083 | 2.75 ± 0.05
KPENKTDKVSLSQPVSA [SIR4] | 2.81 ± 0.055 | 2.68 ± 0.052 | 2.49 ± 0.063 | 2.14 ± 0.037
SAENRDEKDYLTNQQPK [CSE2] | 2.76 ± 0.063 | 2.79 ± 0.062 | 2.54 ± 0.048 | 2.77 ± 0.038
DQTNHIESDSILNLLNI [ECM29] | 3.02 ± 0.064 | 3.04 ± 0.072 | 2.99 ± 0.077 | 3.03 ± 0.059
KEKKELQMRLKESEISH [YIL149C/MLP2] | 2.6 ± 0.22 | 2.94 ± 0.17 | 3.04 ± 0.17 | 3.04 ± 0.15
LARQVKLLLLNTSAIQE [YIL149C/MLP2] | 2.19 ± 0.085 | 1.75 ± 0.073 | 1.56 ± 0.12 | 1.65 ± 0.038
QELKLTCVAKKGIAKEH [RPB3] | 3.09 ± 0.23 | 3.18 ± 0.13 | 2.92 ± 0.1 | 2.96 ± 0.095
GCKNGSFTLLNQLSQTN [NUT1] | 2.86 ± 0.12 | 3.05 ± 0.079 | 2.97 ± 0.095 | 3.22 ± 0.11
FPIALQWTGGRGGGHHS [FAS1] | 2.52 ± 0.18 | 1.87 ± 0.23 |  | 
KELTRIPGEEVEETEVP [MED4] | 3.21 ± 0.16 | 3.23 ± 0.21 | 3.02 ± 0.13 | 
LGKCSRITDASLFQLSK [GRR1] | 3.04 ± 0.11 | 3.14 ± 0.11 | 3.14 ± 0.093 | 2.88 ± 0.063
MPQSFTSIARIGDYILK [QCR7] | 3.35 ± 0.2 | 3.33 ± 0.12 | 3.04 ± 0.15 | 3.1 ± 0.062
EDTPANDSSATRSWRPP [RPB8] | 2.44 ± 0.24 | 2.88 ± 0.18 | 2.47 ± 0.2 | 2.95 ± 0.084
MAAQKSFRIKQKMAKAK [RPL39] | 2.75 ± 0.072 | 2.97 ± 0.11 | 2.25 ± 0.083 | 2.74 ± 0.08
LLAKAVANQTSATFLRI [RPT2] | 3 ± 0.13 | 2.27 ± 0.1 | 2.3 ± 0.14 | 2.21 ± 0.073
EEQKSSDTSKPAFTFGA [YJL041W/NSP1] | 3.25 ± 0.07 | 3.15 ± 0.06 | 2.89 ± 0.059 | 3.23 ± 0.05
LNVKCTRNPDAPKGSTD [RPC40] | 3.19 ± 0.095 | 3.1 ± 0.11 | 3.04 ± 0.064 | 3.06 ± 0.12
FPKIDSLAQNDCNSALD [RPN5] | 2.52 ± 0.062 | 2.64 ± 0.049 | 3.03 ± 0.05 | 2.93 ± 0.045

Source: the supplement of paper PMC9732359
